Experimental data published in patent publication CN106957364A (UNIV SHANGHAI JIAOTONG, dated 2017).

Biological target: T1, hFcRn&b2M蛋白 (human, UniProt P55899 24-297; P61769 21-119, limits assumed)
T1 construct: also called hFcRn&β2M; hFcRn蛋白
Assay: affinity measurement at pH 6.0, hFcRn&b2M as ligand, scFv as sample (method not named)

T1 sequence (P55899 24-297 limits assumed, chain 1 of 2): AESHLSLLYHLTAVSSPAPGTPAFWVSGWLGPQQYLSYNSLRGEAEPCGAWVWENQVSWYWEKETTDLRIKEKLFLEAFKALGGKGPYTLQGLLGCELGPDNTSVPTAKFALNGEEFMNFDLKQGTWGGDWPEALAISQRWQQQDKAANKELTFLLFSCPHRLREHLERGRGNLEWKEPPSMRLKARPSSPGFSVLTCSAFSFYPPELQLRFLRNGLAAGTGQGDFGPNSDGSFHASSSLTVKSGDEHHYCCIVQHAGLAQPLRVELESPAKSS
T1 sequence (P61769 21-119 limits assumed, chain 2 of 2): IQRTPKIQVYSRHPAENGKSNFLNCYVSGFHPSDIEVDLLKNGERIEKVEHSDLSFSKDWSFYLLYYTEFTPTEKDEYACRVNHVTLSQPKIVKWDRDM

B1: 单链抗体FnAb12 (scFv)
scFv: DIQLTQSPSSLSASVGDRVTLTCQATQDIDNNLNWYQQKPGKAPKLLIYDASNLETGVPSRFSGSGSGTDFTFTISDLQPEDVATYYCQQYYNLPLTFGGGTKVDIKRSRGGGGSGGGGSGGGGSLEMAEVQLVQSGAEVKKPGASVKVSCKASGYTFTSYDINWVRQATGQGLEWMGWMNPNSGNTGYAQKFQGRVTMTRNTSISTAYMELSSLRSEDTAVYYCARGVDLGDGWGQGTLVTVSS
notes: Single-chain antibody from a phage library; also called FnAb12抗体; 单克隆抗体FnAb12
B1 gave a Kd of 15 nM.
